Article PMC8449409 (2021)

Molecular target: T1, β-catenin (Mus musculus, UniProt Q02248)
T1 chain: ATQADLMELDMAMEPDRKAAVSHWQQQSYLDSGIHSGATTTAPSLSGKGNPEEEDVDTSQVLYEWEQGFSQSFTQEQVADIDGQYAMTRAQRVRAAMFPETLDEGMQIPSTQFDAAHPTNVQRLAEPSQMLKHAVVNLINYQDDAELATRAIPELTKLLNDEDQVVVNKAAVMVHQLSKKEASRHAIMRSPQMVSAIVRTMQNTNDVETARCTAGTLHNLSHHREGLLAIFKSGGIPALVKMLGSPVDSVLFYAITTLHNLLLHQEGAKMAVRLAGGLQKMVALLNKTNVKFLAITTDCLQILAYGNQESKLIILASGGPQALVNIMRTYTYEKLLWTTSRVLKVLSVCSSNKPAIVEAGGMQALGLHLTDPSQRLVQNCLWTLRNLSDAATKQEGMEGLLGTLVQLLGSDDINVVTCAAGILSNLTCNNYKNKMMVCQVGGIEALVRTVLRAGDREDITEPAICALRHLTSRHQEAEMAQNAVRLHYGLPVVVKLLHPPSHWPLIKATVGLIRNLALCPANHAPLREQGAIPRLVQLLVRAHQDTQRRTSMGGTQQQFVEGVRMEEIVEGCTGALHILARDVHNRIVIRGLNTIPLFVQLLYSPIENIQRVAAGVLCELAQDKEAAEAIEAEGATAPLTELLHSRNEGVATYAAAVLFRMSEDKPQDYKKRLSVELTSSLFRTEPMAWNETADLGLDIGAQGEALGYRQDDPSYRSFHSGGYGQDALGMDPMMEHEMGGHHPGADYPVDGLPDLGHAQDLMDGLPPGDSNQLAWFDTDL

Kd: > 1000 nM
Binder: DPTAPPYDSLLVFDYEGSGS [E-cadherin core-binding peptide core-binding region (20 aa)]
